{"source": "patent US20110014125", "key": {"[1]": {"test_system": "Fe/Fe3O4 nanoparticle-TCPP assemblies featuring the urokinase cleavage sequence"}, "[2]": {"test_system": "T1, oligopeptide SRSRSRSRSRSGRSAGGGC (SEQ ID NO: 18) as spacer between a pyrene fluorophore and a coumarin acceptor", "T1 sequence": "SRSRSRSRSRSGRSAGGGC"}, "[3]": {"test_system": "T2, oligopeptide CGGGSGRSAGGGC (SEQ ID NO: 35) linking two gold nanoparticles (Au-Au nanoparticle assembly)", "T2 sequence": "CGGGSGRSAGGGC"}, "[4]": {"test_system": "T3, oligopeptide CGGGSGRSAGGGC (SEQ ID NO: 35) tethering Zn-TCPP and TCPP porphyrins to a stealth-protected Fe/Fe3O4 nanoparticle", "T3 sequence": "CGGGSGRSAGGGC"}}}
{"substance": "urokinase", "values": [{"measurement": "cleavage rate (rate constant k from TCPP luminescence at 656 nm vs. time)", "setting": "[1]", "value": "the cleavage rate increases by 3-5 times per order of magnitude of increase in urokinase concentration"}, {"measurement": "coumarin emission (FRET from pyrene, excitation 280 nm) over 0-15 minutes", "setting": "[2]", "value": "The coumarin emission decreases with time"}, {"measurement": "maximum of the gold plasmon absorption (UV/Vis absorption, after 180 seconds with urokinase)", "setting": "[3]", "value": "shift from 523 nm to 517 nm within 180 seconds"}, {"measurement": "maximum of the gold plasmon absorption (UV/Vis absorption, before cleavage)", "setting": "[3]", "value": "shift from 523 nm to 517 nm within 180 seconds"}, {"measurement": "fluorescence band at 607 nm over 0-6 minutes", "setting": "[4]", "value": "distinct decrease of the fluorescence band at λ1=607 nm"}]}
